Test [1] addresses T1, myc-tagged human EphB4 on transfected CHO cells (human, UniProt P54760 16-987).
T1 construct: whole, on cells; also called CHO-EphB4; CHO-hEphB4; not shown: myc tag
T1 sequence (looked up): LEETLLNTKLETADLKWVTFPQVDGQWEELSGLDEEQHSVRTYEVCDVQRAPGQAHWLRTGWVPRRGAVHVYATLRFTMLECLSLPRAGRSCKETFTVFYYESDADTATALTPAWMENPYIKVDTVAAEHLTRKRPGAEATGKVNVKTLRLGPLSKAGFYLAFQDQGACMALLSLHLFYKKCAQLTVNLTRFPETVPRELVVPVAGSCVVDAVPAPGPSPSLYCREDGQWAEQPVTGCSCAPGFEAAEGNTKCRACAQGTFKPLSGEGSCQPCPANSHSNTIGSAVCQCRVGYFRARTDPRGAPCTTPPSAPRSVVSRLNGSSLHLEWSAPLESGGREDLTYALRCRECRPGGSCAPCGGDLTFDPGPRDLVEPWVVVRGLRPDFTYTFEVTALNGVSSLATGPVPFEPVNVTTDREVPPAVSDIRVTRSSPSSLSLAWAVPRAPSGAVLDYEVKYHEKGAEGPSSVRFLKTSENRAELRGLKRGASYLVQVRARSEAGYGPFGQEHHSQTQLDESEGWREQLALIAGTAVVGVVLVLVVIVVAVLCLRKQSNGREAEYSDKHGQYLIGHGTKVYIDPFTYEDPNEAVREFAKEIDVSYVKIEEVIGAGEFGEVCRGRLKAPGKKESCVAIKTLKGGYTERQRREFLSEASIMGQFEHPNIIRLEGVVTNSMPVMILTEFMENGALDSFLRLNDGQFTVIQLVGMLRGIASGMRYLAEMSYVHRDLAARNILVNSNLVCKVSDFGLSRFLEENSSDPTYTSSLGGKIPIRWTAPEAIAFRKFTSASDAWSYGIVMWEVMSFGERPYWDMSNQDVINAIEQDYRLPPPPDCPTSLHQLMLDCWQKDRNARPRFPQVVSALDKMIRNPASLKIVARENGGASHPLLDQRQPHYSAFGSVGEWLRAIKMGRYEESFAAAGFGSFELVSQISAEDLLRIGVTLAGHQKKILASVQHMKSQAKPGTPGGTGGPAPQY
Kind of test: FACS competition on CHO-hEphB4 cells, competitor biotinylated mEphrinB2 250 ng/mL. The procedure:
CHO-hEphB4 cells were trypsinized, washed and resuspended in FACS buffer (PBS/1% BSA) containing anti-EphB4 antibody at different concentrations and incubated at 4° C. for 30 min. Cells were washed in FACS buffer and resuspended in FACS buffer containing biotinylated mEphrinB2 at 250 ng/mL and incubated at 4° C. for 1 hr. cells were washed in FACS buffer and resuspended in FACS buffer containing Streptavidin-PE and incubated at 4° C. for 30 min. After a final wash step, cell staining was analyzed in a Becton Dickinson FACS.

For test [2], the target named is T2, recombinant human EphB4-Fc fusion protein (human, UniProt P54760 16-539).
T2 construct: extracellular domain; also called hEphB4; hu EphB4-Fc
T2 sequence (looked up): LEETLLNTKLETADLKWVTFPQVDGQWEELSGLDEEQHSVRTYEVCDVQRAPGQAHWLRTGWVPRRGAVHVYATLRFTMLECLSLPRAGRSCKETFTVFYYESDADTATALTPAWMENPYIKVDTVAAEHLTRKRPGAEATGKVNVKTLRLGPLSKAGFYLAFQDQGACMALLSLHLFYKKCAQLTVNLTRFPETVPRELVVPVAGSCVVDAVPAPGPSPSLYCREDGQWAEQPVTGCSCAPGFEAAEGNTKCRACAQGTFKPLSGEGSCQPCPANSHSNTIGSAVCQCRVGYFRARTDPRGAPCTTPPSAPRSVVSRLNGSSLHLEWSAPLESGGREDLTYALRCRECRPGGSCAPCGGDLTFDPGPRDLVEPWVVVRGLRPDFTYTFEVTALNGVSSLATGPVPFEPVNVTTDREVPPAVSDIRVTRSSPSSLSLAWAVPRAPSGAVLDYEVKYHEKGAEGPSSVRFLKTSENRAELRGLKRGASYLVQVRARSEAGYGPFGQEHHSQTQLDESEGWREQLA
Nature of the test: Biacore, EphB4-Fc on chip. The protocol:
(§1) The affinity of the antibody fragments was determined using BIACORE™ analysis and cell ELISA. The Biacore chip was coated with recombinant human or murine EphB4-Fc fusion protein.

Test [3] addresses T3, recombinant murine EphB4-Fc fusion protein (mouse, UniProt P54761 16-539).
T3 construct: extracellular domain; also called mEphB4; mu EphB4; not shown: Fc part, not described
T3 sequence (looked up): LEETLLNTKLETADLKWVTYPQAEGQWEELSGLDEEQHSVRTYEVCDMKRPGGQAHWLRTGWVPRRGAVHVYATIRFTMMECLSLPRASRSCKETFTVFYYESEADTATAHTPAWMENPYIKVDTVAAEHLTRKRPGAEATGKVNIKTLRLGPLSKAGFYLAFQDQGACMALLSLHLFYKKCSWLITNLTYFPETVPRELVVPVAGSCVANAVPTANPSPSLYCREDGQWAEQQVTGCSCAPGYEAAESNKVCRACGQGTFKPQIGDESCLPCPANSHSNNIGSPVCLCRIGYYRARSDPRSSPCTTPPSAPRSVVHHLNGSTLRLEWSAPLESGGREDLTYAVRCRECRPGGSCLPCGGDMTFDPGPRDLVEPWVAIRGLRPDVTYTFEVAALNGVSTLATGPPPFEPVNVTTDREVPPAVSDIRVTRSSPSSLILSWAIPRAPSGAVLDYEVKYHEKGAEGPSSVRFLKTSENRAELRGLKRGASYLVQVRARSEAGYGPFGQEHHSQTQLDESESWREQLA
Nature of the test: Biacore, EphB4-Fc on chip. The protocol: as §1
In general terms: Surface plasmon resonance follows binding to a sensor surface in real time, without labels.

Test [4] has as its target T2, recombinant human EphB4-Fc fusion …. Kind of test: ELISA.
Test [5] deals with T1, myc-tagged human EphB4 on transfected …. Nature of the test: FACS, Fab against EphrinB2-Fc on hEphB4-transfected cells. The protocol: IC₅₀ values were determined using recombinant antigen (murine and human EphB4) in an ELISA and on transfected cells in a FACS analysis (human EphB4 receptor).
Binding of (a fixed concentration of) the ligand EphrinB2-Fc to immobilized EphB4 receptor on an ELISA plate or on transfected cells is titrated with anti-EphB4 Fab. The IC₅₀ is determined as the amount of Fab at which the binding of EphrinB2 is inhibited by 50%.

We go through three molecules from US20090137002A1 (published 2009).

B1: MOR03640 Fab (Fab, V domains shown)
VH: QVQLVESGGGLVQPGGSLRLSCAASGFTFNNSWMSWVRQAPGKGLEWVSNITSSSSMTHYADSVKGRFTISRDNSKNTLYLQMNSLRAEDTAVYYCARKGMSFYNNKYAKSMFDLWGQGTLVTVSS
VL: DIELTQPPSVSVAPGQTARISCSGDNLGKKYVHWYQQKPGQAPVLVIYYDSKRPSGIPERFSGSNSGNTATLTISGTQAEDEADYYCSAWTTTMMHIVFGGGTKLTVLG
notes: Monomeric HuCAL Fab, purified, MH-tagged
Regarding B1, the “IC50 (read off the curve)” value in test [1] is approximately 0.4 µg/mL. Moreover, the figures for the Kd in test [2] and in test [3] were 1.8 nM and 4 nM, respectively. Also, the “ELISA signal above background” value in test [4] turned out to be 10 fold. Also, the IC50 in test [5] worked out at 2.1 µg/mL.

B2: MOR03639 Fab (Fab, V domains shown)
VH: QVQLVESGGGLVQPGGSLRLSCAASGFTFSNYYLHWVRQAPGKGLEWVSGISYSGSSTYYADSVKGRFTISRDNSKNTLYLQMNSLRAEDTAVYYCARFYQRRQIPHGYDVWGQGTLVTVSS
VL: DIELTQPPSVSVAPGQTARISCSGDNIGDYYVHWYQQKPGQAPVLVIYRDSNRPSGIPERFSGSNSGNTATLTISGTQAEDEADYYCGSYDMPFGGTVFGGGTKLTVLG
notes: Monomeric HuCAL Fab (VH3, lambda3), purified, MH-tagged
For B2, the “IC50 (read off the curve)” value in test [1] is approximately 2 µg/mL. Further, the Kd in test [2] was determined as 13 nM; in test [3] it was 43 nM. In test [4], the “ELISA signal above background” value came out at 10 fold. Further, the IC50 in test [5] is 2.8 µg/mL.

B3: MOR03641 Fab (Fab, V domains shown)
VH: QVQLVQSGAEVKKPGSSVKVSCKASGGTFSTYAISWVRQAPGQGLEWMGRIIPIFGTANYAQKFQGRVTITADESTSTAYMELSSLRSEDTAVYYCARSSYTILTTYYNYNAMDNWGQGTLVTVSS
VL: DIQMTQSPSSLSASVGDRVTITCRASQNINNFLNWYQQKPGKAPKLLIYGSSILQSGVPSRFSGSGSGTDFTLTISSLQPEDFAVYYCHQVSDTSDTFGQGTKVEIKR
notes: Monomeric HuCAL Fab (VH1A, kappa1), purified, MH-tagged; also called 3541 [sic]
For the molecule B3, the “IC50 (read off the curve)” value in test [1] was approximately 1 µg/mL. For the same molecule, the Kd in test [2] turned out to be 35 nM; in test [3], 151 nM. Besides, in test [4], the “ELISA signal above background” value amounted to 10 fold. Further, in test [5], the IC50 was 4.4 µg/mL.

One may read the Kd as the constant that tells how readily two partners part at equilibrium. By IC50 is commonly meant the point on the concentration scale where inhibition reaches its midpoint.
